Laboratory results published in patent publication US20140234303A1.

Target: mGCSF (R&D Systems Cat#414-CS) (mouse (printed as 'm')) (UniProt P09920)
Assay: cell-based or functional assay

UniProt P09920, sequence (P09920 31-208 limits assumed): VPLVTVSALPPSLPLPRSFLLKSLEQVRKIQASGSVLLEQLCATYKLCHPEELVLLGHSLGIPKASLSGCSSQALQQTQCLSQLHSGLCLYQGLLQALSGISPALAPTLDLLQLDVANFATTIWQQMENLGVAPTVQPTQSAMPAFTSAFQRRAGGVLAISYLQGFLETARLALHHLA

Row | inhibition of mG-CSF proliferation of hG-CSFR BaF3 cells (MTS reduction), IC50 | Substance
1 | 0.022 nM | soluble hG-CSFR-Fc protein (from UniProt Q99062 25-627) (Fc fusion)
2 | 0.01 nM | Neutralizing anti-G-CSF (MAB414), R&D Systems (antibody)
